Source: PMC12846072

Target: VP2 capsid protein of Epizootic hemorrhagic disease virus serotype 8, wild type (Epizootic hemorrhagic disease virus serotype 8 (EHDV-8)) (UniProt Q00273)
Assay: SEC; FPLC-SEC on Superose 6 16/300 in PBS 1X pH 7.4, calibrated with the gel filtration HMW calibration kit; oligomeric state from retention time

Work on “VP2 capsid protein of Epizootic hemorrhagic disease virus serotype 8, wild type (from UniProt Q00273 1-971) (natural protein)” yielded a stoichiometry N of 3.
